Here are results for eight substances from patent publication US20210186010A1, “SURFACES […] QUORUM SENSING MODULATORS” (priority 2015, published 2021).

“And” between values parts separate entries of the source, which are not always exact repeats. Equal entries are not always repeated.

The test system of experiment [1] is Agr QS in the S. aureus reporter strain. Description: Fluorescence imaging / single-cell analysis of S. aureus reporter strain incubated with compounds in solution. The experiment is classed as cell-based, Staphylococcus aureus. Conditions: 100 nM AIP-I, 3 h incubation. The text has this:
FIG. 1 Includes FIG. 1A-FIG. 1C. FIG. 1A. illustrates the Agr QS responses of S. aureus to exogenously supplied agonists and antagonists. To follow the QS status of S. aureus cells growing on unmodified and chemically-modified surfaces, confocal microscopy and an S. aureus reporter strain that produced the fluorescent protein mKate2 in response to exogenous addition of AIP-I was used. The reporter strain was a ΔagrBDCA ΔRNAIII S. aureus mutant harboring a multicopy plasmid carrying agrCA driven by the native agrP2 promoter. […] The plasmid also harbored the Agr-activated agrP3 promoter fused to mkate2. Therefore, in response to exogenously provided AIP-I, the reporter strain fluoresced red. This QS response was repressed by the administration of TrAIP-II. A constitutively expressed sarAP1-gfpmut2 gene was introduced into the chromosome to enable normalization of QS responses^18. FIG. 1B. […]
FIG. 1B. Fluorescence images of the S. aureus reporter strain (pathways shown in panel FIG. 1A) after 3 h incubation with buffer or buffer containing 100 nM AIP-I agonist. […] Fluorescence images of the S. aureus reporter strain used in this study following 3 h incubation with TrAIP-II or with combinations of AIP-I and TrAIP-II. […]
FIG. 6. […] To identify the source of heterogeneity, the fluorescent protein distributions in individual cells was measured under different conditions. […]

Experiment [2] has the same test system. Description: Solution Assay: fluorescence reporter assay (agrP3-mkate2 normalized to sarAP1-gfpmut2), plate reader. Format: cell-based, Staphylococcus aureus. The conditions noted are these: activation of Agr QS, compound in solution; n=3 experiments. The method, then:
Transcription from fluorescence reporter genes was measured in S. aureus strain MK242. Overnight cultures were diluted 1:200 into fresh TSB with 10 µg/ml tetracycline and 10 µg/ml erythromycin, re-grown, and 90 μl of these cultures were distributed into wells of 96 well plates (MatTek, Ashland, Mass.), followed by addition of 10 μl of AIP-I and/or TrAIP-II and/or derivatives. Subsequently, 50 μl of mineral oil was added (Sigma, St. Louis, Mo.) to prevent evaporation. Using a Synergy 2 plate reader (Biotek, Winooski, Vt.), GFPmut2 and mKate2 levels were measured at 484 nm/528 nm and 588 nm/633 nm, respectively. Measurements were conducted with 15 min intervals at 37° C. with shaking. This assay was called “Solution Assay”.
To make AIP-I amenable to surface attachment, AIP-I containing an alkyne at the N-terminus was synthesized (FIG. 7A and FIG. 8A). This compound was called “Alkyne-AIP-I” (FIG. 2A). Prior to attaching the Alkyne-AIP-I to the surface linkers, the click reaction was carried out between the Alkyne-AIP-I and a surface-free version of the PEG330-azide linker to test if the AIP-I derivatives retained their activation capability following the click reaction. […] This compound was called “PEG330-triazole-AIP-I” (FIG. 2A (iii), FIG. 7A and FIG. 8B).
It was investigated whether a QS antagonist, when immobilized on a surface, could interfere with Agr QS signal transduction. […]

In experiment [3] the target is AgrC-I receptor (Staphylococcus aureus (agr-I)). Description: cell-based or functional assay.

In the case of AIP-I, the “mKate2 production (QS-controlled reporter)” value in experiment [1] was “mKate2 was produced only when AIP-I was supplied to the cells”. For the same substance, in experiment [2], the concentration giving a half-maximal response (EC50) is 28 nM and 30 nM.
AIP-I (peptide): the EC50 of Agr QS activation (agrP3-mkate2 reporter normalised to constitutive GFPmut2, solution assay, S. aureus reporter strain) in experiment [3] was determined as 28 nM.
For PEG330-triazole-AIP-I (peptide), the EC50 of Agr QS activation (agrP3-mkate2 reporter normalised to constitutive GFPmut2, solution assay, S. aureus reporter strain) in experiment [3] was 1100 nM.
In the case of TrAIP-II (peptide), in experiment [3], the IC50 of Agr QS inhibition when AIP-I is present at 100 nM (reporter solution assay) stood at 1500 nM and the decrease in QS inhibition when TrAIP-II is lowered from 2.5 µM to 250 nM, with 100 nM AIP-I was found to be 9 fold.
Consider Alkyne-TrAIP-II (peptide), for which the IC50 of Agr QS inhibition when AIP-I is present at 100 nM (reporter solution assay) in experiment [3] was 210 nM.
The same measure, in the same setting: the figure for PEG330-triazole-TrAIP-II (peptide) is 3100 nM.
Take Alkyne-AIP-I (peptide): the EC50 of Agr QS activation (agrP3-mkate2 reporter normalised to constitutive GFPmut2, solution assay, S. aureus reporter strain) in experiment [3] amounted to 190 nM.
In the case of “Surface-PEG10000-triazole-AIP-I (peptide)”, in experiment [3], the activation of the Agr QS response at T=6 h against T=0 h (surface assay, microfluidic chambers) was 25 fold; the surface coverage density above which the QS response is saturated was > 16000 µm^-2; the surface coverage density below which no QS response is elicited is < 210 µm^-2.
